Measurements from PMC7297996, “Alzheimer’s disease-related dysregulation of mRNA translation causes key pathological features with ageing” (Translational Psychiatry, 2020).

Biological target: the molecule itself
Assay: native gel or EMSA; NativePAGE (Invitrogen) of the synthetic Aβ1-42 preparation, detected with antibody 4G8; guanidine hydrochloride (1:1) used to break down oligomers

B1: synthetic rat Aβ1-42 peptide (peptide, UniProt P08592 672-713, looked up)
peptide: DAEFGHDSGFEVRHQKLVFFAEDVGSNKGAIIGLMVGGVVIA
notes: amyloid-beta 1-42, cut product of the amyloid precursor protein (APP), rat; Oligomer preparation: 100 uM stock in 200 mM HEPES pH 8.5, agitated for 30 min at room temperature; also called amyloid-β 1-42; rodent Aβ_(1-42); source: synthetic peptide; bought: Calbiochem
- binding result: binds
